Measured values taken from the DeepSol protein solubility set.

Assay: soluble on expression in E. coli; label from the status in PepcDB or PDB records

## MGSDKIHHHHHHMWGYLQGKQVALKRNRVDLYHFGYMIRSKSARKLGTTTAQQIKDITDEIRAFLVKDHRDILSESFMNKEKRAAVEQIIKSFLLSNQVVISDVPSEQLLNMVCDDIVGFGIIEPLKEDQDVTDIYINGTKEIIYEKIGEGELTFPYRFETEEEVKALAYKMVNSTSESLNTAKPYVDCVFPYIRINIALDELGGLGTTITIRKNADHLRASEERMLSTNQASKEMLDFLAAAVKAKMNILVAGATGTGKSEFMKFLASHIPKGKKKERTLVVEDNPELYLHRIFPEHHFVPMQCRASEVEENAIDFDRLLTNALRQGPKRLIVGESRGKEALKMINFFQTGHPGFTSVHARSAIEAVRRLMLMCLQSGANIDAQYLYELISQTFDVIVFLEKKDDGNRYITEMIELLDYRGDIQFNELSQFIPTYEEQDEINESIGKIHGQHIITGKMSAKMEKKFRSATSVNPALYAPFLSQQEVQYA
  soluble on expression in E. coli: not soluble

## MAHHHHHHMRPSLPKKVLAWIASYPSYFIVDDPTEKDPSKARIRRASDRQPLDVALELYRWIPEEGISEAALLTKLSEVHRDYVKRIGLRHIVDSLSEWLSFTEAPGGGGGGAEGEEKVLLLRRLQTEVELERAIHTEESKLASGDENSLPVQIEDAEMERRWPKLKYEGTMSQQQASVARAQQRRGRGDI
  soluble on expression in E. coli: soluble

## LTPLAQMAEGMERQDVSIDKWTLHAKQNLSLTEKEFYQKVQRLKQEYRQYDWVIAREDKMIKAIGTYTDKKNRTSFRLQLVTTLKKHNPTSYLLYEQMSLETPDSWNDTYEQFERETLGIFQEKVVIFTCLNGHLDDNMNIVLQKKANQLLNEFQARSVEHVVEPNFVSISAFTDEWEEYIMTSKHKMNLQIALRSAGMGGKHTVTVGTPIVTTEY
  soluble on expression in E. coli: soluble

## MKIAYFSDTYYPTPDGVSTYLKDVKRGLEKRGHEVYIFSLTGDPHEKNVFIPRTVPFPPYDQYRMPLIPFPFREFKTAVDIMPDVIHLHNAFYMSSVGYLVARRLGKKPISTFHTDIDKMRESIRLPFSDLIFDLGKRYSIYLYRKCKFVLAPSCQVKAYLERCGLKNIVTVPLFVDTDELSPAKASNKQDIILYLGRLTKDKGVYRVLELANEMKGTGYKFIIAGVGPELERMKAYVKENDISNVNILGYVKEDEKKQLMEVSKFFIYPSSADTFGISVFEALSMGLPAIVSKEFPVKEDTNAIVYEDFSNIKHIANKLLNIDQATYSEMSTSARTLAISKYSIDRHIDQLLSLYMSLVDHLEHHHHHH
  soluble on expression in E. coli: not soluble

## MGSDKIHHHHHHMSEAILNICSVSKRFGDNLANDDISLSLGKGEIVALLGENGAGKTTLMSILFGHYVPDSGKVLVEGRELPPGKPRAAIRAGIGMVHQHFSLAPNLTVLENVMAGTERLWHLRSGTSAARRKLHRICQRFGLTVEPDARVGDLSVGEQQRVEILKALYNDAHILVLDEPTAVLTNLEAERLFSTLKDMAREGLSLIFISHKLDEVMAAANRIVVLRGGRKVAERLAKETNKAELAELMVGRRVARPVREPSTPGEVVLKVADVSVSIDGVERLKSIDFSLRAGEVLGIIGVSGNGQTTLAHLLSGTLRRDKGDLLLFGEPIGDLTVDDAVRAGIGRIPEDRNKEGAIGEMAIWENAVLERLPRFSRYGLVDRPSGQAFAGQIIDAFDVRGGRPTTRTRLLSGGNMQKLILGRNLMDRPRILLAAQPARGLDEGAVAAVHERLLEARRAGTAVLLISEDLEEVMALADRIQAIVNGRLSPPIAADSASATKLGLMMAGEWNEEHEVPHAF
  soluble on expression in E. coli: not soluble

## MAGDPMKQFAQTYYLLQFIICLICLSISCGEGGNDNYSETNDERNKEPEITVSPITNLEAKSTQIANQLLITWQNPNTPNLLGVELSYLQKNGGTHNGKQIIQGAAGKTGNYTLQLPQYGTYEISAIAIDNYGHRSSAVTVIATPAETTVPFSWATLADSCTYVLIEQFMNKSKGTFWSTPKDMSDESTYIYWQQAHAMDVVIYSYKRIKDTNKQLAATYRTYFERWYANHANNYHRNPSDETGFLNDFTDDMCWICLTLIHLSEATGDEKFAQTAKIVYDKYIITRAWTDDKGTGLPWNTTQNDRNACTNSPGCLVAAKLYQRYEDGNYLSDAKKLYEYVVNNSYNADGRVEEPPLTYTQGTFGEACRQLYHITQESKYMDKAKQVINYAATSDRCLRNGILRDEGSSMDQSIFKSVYIPYAVNLALDEASSSIGKHLITFLKNNAETLRMNLNHAAYPAMYCNYWWGEMWKSSEPASMGAQVSGASLMEGIARLEAAALEHHHHHH
  soluble on expression in E. coli: not soluble

## MGSDKIHHHHHHMVKELDLQSVQGTMLIPLWGRAYGSEKNKNILDDTEAIRIIKEFDFDFSTIENTFGEYGCITYITRARKIDDTIKQFITKHPNATIVNIGSGLDTTFSRIDNGTIHWYNLDLPDAISFRKTLIEDTSRNTSIAKSFFDTSWFDDIKYDPNDGILFISAGVFYYFKEEDLKKIVVAMSKRFPGGELYFDAESKFALNLSNATVKKSGNNGALMYFYINNPKTLEKWSPNIKVLSCSPFFKNIPTNKGWDGSTRIMIRIVNLIKMLKFVHLRFEK
  soluble on expression in E. coli: not soluble

## MCEQCGKCKCGECTAPRTLPSCLACNRQCLCSAESMVEYGTCMCLVKGIFYHCSNDDEGDSYSDNPCSCSQSHCCSRYLCMGAMSLFLPCLLCYPPAKGCLKLCRRCYDWIHRPGCRCKNSNTVYCKLESCPSRGQGKPSLEHHHHHH
  soluble on expression in E. coli: not soluble

## MGSDKIHHHHHHMNILMLMLSDNPDTGGMEKHARELSSELARLGHTVTLAAASQHLSDLEPAVKTRALDTGGSRNSPFLLLTVLRLIRANGFDVIHAQGTKAAFVLQRLTPFTRSLMRVATIHGFKSRYPKAAAFHQLIAVSQALATDIAQPGVTVIYNGVSVIPQAPALLPKETERPVWLAVGRLVSVKGFDFLIRTFQYCPGTLLIAGDGPERQRLADLISSTHQSETVKLLGFRSDVPALMAAADGVVISSEREGFSYVCAEALLLGKPVISTDVPIANEILPEKHIFRGEDPKRFAAYLSQDTSTLVAEQAEAQAFAADQLSLSSMASQTLNVYQRAIANLVSIH
  soluble on expression in E. coli: not soluble

## ETELAFLYERDIYRLLAECDNSRNPDLGLIVRICLATGARWSEAETLTQSQVMPYKITFTNTKSKKNRTVPISDELFDMLPKKRGRLFNDAYESFENAVLRAEIELPKGQLTHVLRHTFASHFMMNGGNILVLKEILGHSTIEMTMRYAHFAPSHLESAVKFNPLSNPAQ
  soluble on expression in E. coli: soluble

## MSQNLFNVEDYRKLAQKRLPKMVYDYLEGGAEDEYGVKHNRDVFQQWRFKPKRLVDVSRRSLQAEVLGKRQSMPLLIGPTALNGALWPKGDLALARAATKAGIPFVLSTASNMSIEDLARQCDGDLWFQLYVIHREIAQGMVLKALHTGYTTLVLTTDVAVNGYRERDLHNRFKIPPFLTLKNFEGIDLGKMDKANLEMQAALMSRQMDASFNWEALRWLRDLWPHKLLVKGLLSAEDADRCIAEGADGVILSNHGGRQLDCAISPMEVLAQSVAKTGKPVLIDSGFRRGSDIVKALALGAEAVLLGRATLYGLAARGETGVDEVLTLLKADIDRTLAQIGCPDITSLSPDYLQNEGVTNTAPVDHLIGKGTHAHHHHHH
  soluble on expression in E. coli: soluble

## MAAFAVDPQAPTLGSEPMMLGSPTSPKTGANAQFLPGFLMGDLPAPVTPQPRSISGPSVGVMEMRSPLLAGGSPPQPVVPAHKDKSGAPPVRSIYDDISSPGLGSTPLTSRRQANISLLQSPLVGATPPVPGQSMFSPANIGQPRKTTLSPAQLDPFYTQGDSLTSEDHLDDTWVTVFGFPQASASYILLQFAQYGNILKHVMSNTGNWMHIRYQSKLQARKALSKDGRIFGESIMIGVKPCIDKNVMENSDRGVLSSPSLAFTTPIRTLGTPTQSGSTPRVSTMRPLATAYKASTSDYQVISDRQTPKKDESLVSRAMEYMFGW
  soluble on expression in E. coli: soluble

## MENIMKITIINGSPRFKKSNSEILKNYLLNFIKENEINEFFSFSIKLDDDIKTDIYNSDILIFIFPLYVDSIPANLLDLLVRFEDENVINSKTKIYCIVNNGFFEGVQNHLAISQIRCWSKKVNAQWGQGIGVGGGELLSHLKKVPLGQGPLKNLGIILEKFSKNILSLKGDEDIYINPNYPKILYFLQANISWFIEGRKNKLKFRDLFKKILEHHHHHH
  soluble on expression in E. coli: not soluble

## MGARVTRALRNFNVEKRAEREISKRKPSMAPKHPSTRDLLQEHRSQYPEIEEVVSKKDNKLLSLLRDVYVDSKDPVPALPVKVEPRQEPKEFRLPIGNHFDKNITDIPKGKITVVEALTLLNNHKLSPETWTAEKIAQEYYLELKDVNSLLKYFVTFEVKILPPEDRKAIQSK
  soluble on expression in E. coli: soluble
